As usually defined, the stoichiometry N is a count of units in the complex or per binding partner.

Holding throughout (experiment): AUC
For assay [1], the target named is I-CreI 28K30N33H38Q40S44K68A70S75N (combinatorial mutant KNHQS/KAS) (Chlamydomonas reinhardti).
Assay [2] has as its target I-CreI 28K30N33H38Q40S44K68E70G75N (combinatorial mutant KNHQS/KEG) (Chlamydomonas reinhardti).
Assay [3] has as its target I-CreI 28N30N33S38R40K44A68R70R75N (combinatorial mutant NNSRK/ARR) (Chlamydomonas reinhardti).
The target of assay [4] is I-CreI 28N30N33S38R40K44A68S70R75N (combinatorial mutant NNSRK/ASR) (Chlamydomonas reinhardti).

On to “I-CreI 28K30N33H38Q40S44K68A70S75N (combinatorial mutant KNHQS/KAS) (enzyme)”, for which the stoichiometry N in assay [1] stood at 2. On to “I-CreI 28K30N33H38Q40S44K68E70G75N (combinatorial mutant KNHQS/KEG) (enzyme)”, for which the stoichiometry N in assay [2] amounted to 2. Turning to “I-CreI 28N30N33S38R40K44A68R70R75N (combinatorial mutant NNSRK/ARR) (enzyme)”, the stoichiometry N in assay [3] came to 2. As for “I-CreI 28N30N33S38R40K44A68S70R75N (combinatorial mutant NNSRK/ASR) (enzyme)”, the stoichiometry N in assay [4] was 2.

The record behind these values is PMC1702487.
